{"source": "patent US20140018288A1", "about": "“X-DING-CD4 Peptide” (priority 2012, published 2014)", "molecules": {"B1": {"name": "X-DING-CD4: native form of X-DING-CD4 protein purified from the extracellular compartment of HIV-1 resistant T-cells, about 40 kDa (protein, listed as Homo sapiens)", "chain": "MADINGGGATLPQPLYQTSGVLTAGFAPYIGVGSGKGKLAFLNNDYSQFGTGTKNVHWAGSDSKLTSTELSTYASTKQAAWGKLIQVPSVATSVAIPFNKAGSNAVDLSVDQLCGVFSGRITTWNQLPATGRTGNIVVVYRNEASGTTELFTRFLTAKCVNESKKFVVTTNFADSFGVPAGAVPAVTSQGVMTKLNAGDGRITYMSPDYAAPTLAGLDDATKVAKVAGVSPAPDNVSAAIAAVPVPAAANVALQNAWVPVFAAAADANDPSVVPYPSTGFPILGFTNLIFSQ"}}, "key": {"[1]": {"system": "HIV-1 LTR promoter", "experiment": "Rapid Suppression Assay (RSA), PMA-induced HIV-1 LTR-driven luciferase in 1G5 cells", "type": "cell-based", "details": "DING family proteins", "from_the_text": "We applied the cell based Rapid Suppression Assay (RSA) for testing X-DING-CD4-induced inhibition of HIV-1 LTR promoter (Lesner et al., 2004; Lesner et al., 2005). Briefly, 1 G5 cells (obtained through the NIH AIDS Research and Reagent Program, Division of AIDS, NIAID, NIH) that are stably transfected with an inducible luciferase gene driven by HIV-1 LTR (Aguilar-Cordova et al., 1994) were washed in PBS, resuspended in hybridoma medium to concentration of 5×10^6cells/ml. For purpose of generating control titration curves, 100 μl aliquots of 1G5 cells were mixed with 100 μl cell culture medium either supplemented with various amount of rX-DING-CD4^pep (SEQ ID No: 1) or no rX-DING-CD4^pep, and incubated for three hours at 37° C. Subsequently, all cells were induced with phorbol 12-myristate 13-acetate (PMA) at a concentration of 5 ng/ml. Two control tubes containing 1G5 cells without rX-DING-CD4^pep treatment were resuspended in hybridoma medium with or without PMA. Three hours later cells were collected by centrifugation and lysed in the same tubes using Reporter Lysis buffer (Promega). The expression levels of luciferase protein in the lysates were determined according to the manufacturer's protocol. The X-DING-CD4^pep inhibition values were established based on the formula: [(LUC1-LUC0)×100/Z]−100; where LUC1 is the value obtained from cells induced by PMA and treated with a specific dilution of X-DING-CD4^pep; and LUC0 is the basal value obtained from the uninduced and untreated cells; Z is the absolute luciferase induction by PMA calculated as Z=LUCmax-LUCO3 where LUCmax is the value of 100% luciferase expression in PMA induced X-DING-CD4^pep untreated cells.\nOne aspect of the present invention is related to X-DING-CD4 peptide derivatives. Here we obtained 15 derivatives SED ID NOS: 1-15 by recombination or in vitro synthesis. We tested the biological activity of some these derivatives by rapid suppression assay (RSA). In XD-4M, the third amino acid glycine in the native X-DING-CD4 peptide was substituted with the polar amino acid glutamine. In XD-7, the two amino acids, cysteine and valine, replaced the three amino acids, glycine, serine and aspartic acid, in the native X-DING-CD4 peptide. In XD-12 and XD-12sh, the 69th amino acid glutamic acid in the native X-DING-CD4 peptide was methylated. In XD-9, the 69th amino acid glutamic acid in the native X-DING-CD4 peptide was substituted with the amino acid glutamine. The RSA procedure was similar to that described in Example 2. The inhibitory values are plotted in FIG. 5.\nWe performed the rapid suppression assay (RSA) which tests directly the inhibition of HIV-1 transcription (similar to the procedure described in Example 2), the MAGI assay which tests the inhibition of HIV-1 replication in a single cycle infection (similar to the procedure described in Example 2), and the HIV-1 infection inhibition assay in human PBLs."}, "[2]": {"system": "NL4-3 HIV-1 isolate", "experiment": "MAGI assay of HIV-1 replication in MAGI-CCR-5 cells", "type": "cell-based", "details": "DING family proteins, FIG. 16B", "protocol": "The antiviral activity of rX-DING-CD4^pep was tested by MAGI assay. […] Subsequently, cells were exposed to rX-DING-CD4^pep treatment in the presence of DMEM supplemented with 5% fetal bovine serum, antibiotics, glutamate and […] DEAE dextran. […] Replication of virus was evaluated forty eight hours later after fixation of cells with 1% formaldehyde and 0.2% glutaraldehyde in PBS. Expression of β-galactosidase was visualized by 50 min exposure to X-GAL (5-bromo-4-chloro-3-indolyl-β-D-galactopyranoside), 0.4 mg/ml 2 mM MgCl2, 4 mM potassium ferricyanide at 37° C. After enumeration of the infected (blue) cells, all cells were lysed and subjected to the protein assay (Bio-Rad). All data were adjusted by total protein concentration and anti-viral activity was calculated as percent inhibition. The infected untreated and uninfected cells served as (+) and (−) controls to calculate 100% virus infectivity. The inhibition values for HIV-1 replication were calculated based on the formula [(R1−R0)×100/Z]-100; where R1 is the value obtained from cells infected by HIV-1 and treated with specific dilution of X-DING-CD4^pep and R^0 is the basal value obtained from the uninfected and untreated cells; Z is the absolute HIV-1 replication value calculated as Z═Rmax−R0, where Rmax is the value representing 100% of HIV-1 replication in X-DING-CD4^pep untreated cells."}, "[3]": {"experiment": "Acute toxicity after intraperitoneal injection in mice", "type": "in vivo, mice (B6/SJL)", "details": "1-50 μg rX-DING-CD4^pep or 50 μg nX-DING-CD4, 7 days", "protocol": "In the animal tests, eight-week old wild-type mice (B6/SJL) with both genders in each test group were injected intraperitoneally with 1-50 μg of rX-DING-CD4^pep or 50 μg nX-DING-CD4. The nX-DING-CD4 refers to the native form of X-DING-CD4 protein that was purified through IXC chromatography from the extracellular compartment of HIV-1 resistant T-cells. The rX-DING-CD4^pep refers to therapeutic X-DING-CD4 peptide that was expressed in E. coli and purified through Ni-affinity column. Toxicity was assessed by obvious symptoms including diarrhea, ruffled fur, abnormal gait, or loss of more than 10% weight. Animals were weighted before injection and then observed every hour for the first 10 hours after injection; then animals were weighted on 1, 3, 4 and 7 days after X-DING-CD4 administration. […] In its highest administered dose (50 μg—corresponding to 2 μg/G) we exceeded therapeutic dose blocking 95% of HIV promoter activity (by RSA assays) and 90% virus replication (by MAGI assays) (See FIGS. 2 & 3 in Example 2)."}, "[4]": {"system": "NL4-3 HIV-1 isolate", "experiment": "HIV-1 infection inhibition assay in human PBLs, intracellular p24 core antigen ELISA", "type": "cell-based", "details": "1 μg/ml protein, seven days after infection", "protocol": "In addition, we measured the inhibitory activities of these four proteins in HIV-1-infected peripheral blood lymphocytes (PBLs). The cells are treated separately with the proteins and the replication of virus was measured five and seven days later by assessing the intracellular levels of p24 core protein. PBLs were obtained by elutriation from the whole blood of healthy, HIV-1 negative volunteers. Before the experiment, cells were stimulated for 2 days in Dulbecco's modified Eagle medium (DMEM) supplemented with 10% fetal bovine serum (FBS), phytohemaglutinin (PHA, 5 μg/ml; Sigma), interleukin 2 (10 U/ml; R&D Systems), antibiotics and glutamate. Subsequently, cells were cultured without PHA. Briefly, 3×10^6 PBLs/well in a 24-well plate (Costar Scientific) were cultured in 1 ml RPMI medium supplemented with antibiotics, glutamate and 1 μg/ml of each protein, respectively. Six hours after the initial exposure to the protein treatments, the culture medium was supplemented with 3%/Vol FBS. […] Replication of virus was evaluated at five and seven days after infection by Elisa assay of the intracellular HIV-1 p24 core antigen (Perkin Elmer). The viability of cells was assessed by the dye exclusion method (Strober, 2001) at 1, 2, 3, 5 and 7 days after protein treatments."}, "[5]": {"system": "X-DING-CD4 mRNA", "experiment": "Induction of X-DING-CD4 mRNA expression in 1G5 cells (qRT-PCR)", "type": "cell-based", "details": "6 hours, 200 ng/ml", "protocol": "The sX-DING-CD4 may be released from the macropinosome to endoplasmic reticulum (ER) and cause induction of IFNα, which in turn induces the expression of X-DING-CD4 mRNA and endogenous X-DING-CD4 protein (step 2). The induction of X-DING-CD4 mRNA by sX-DING-CD4 was tested in 1G5 cells. Briefly, three groups of 1G5 cells were treated for 6 hours with NL4-3 HIV-1 at MOI of 0.1, 200 ng/ml native X-DING-CD4 protein, and 1-126 rX-DING-CD4 peptide (i.e., rX-DING-CD4^pep), respectively. […] The eX-DING-CD4, derived from the newly synthesized X-DING-CD4, binds CN and is transported into the nucleus where it blocks LTR transcription (steps 2-7).\nTwo peptide fragments from the N-terminal region of X-DING-CD4 were synthesized and their activities in inducing IFN-α and X-DING-CD4 mRNA expressions were determined by qRT-PCR. The concentration of proteins used in the assays was 200 ng/ml except for the combination of XD-1 and XD-4 where we used 100 ng/ml of each peptide. The 1-126 rX-DING-CD4 and peptide C3 p16 served as positive and negative controls, respectively. The C3 Peptide P16 was derived from the C3d component of serum complement. C3 Peptide P16 regulates B cells, but not T cells, through interacting with the gp140 C3d receptor (CR2)."}}}
{"molecule": "B1", "values": [{"measurement": "IC50 RSA", "setting": "[1]", "value": 0.052, "unit": "µg/mL"}, {"measurement": "HIV-1 LTR IC50", "setting": "[1]; RSA, FIG. 16A", "value": 52, "unit": "ng/mL"}, {"measurement": "IC50, HIV-1 replication (MAGI)", "setting": "[2]", "value": 75, "unit": "ng/mL"}, {"measurement": "obvious symptoms of toxicity (diarrhea, ruffled fur, abnormal gait)", "setting": "[3]", "value": "Neither of rX-DING-CD4^pep treatment nor nX-DING-CD4 treatment caused any obvious symptoms"}, {"measurement": "reduction of HIV-1 replication (p24)", "setting": "[4]", "value": "about 11 fold"}, {"measurement": "expression of X-DING-CD4 mRNA", "setting": "[5]", "value": "induced expression of X-DING-CD4 mRNA"}]}
